Test results as given in patent US20170283834A1, “Processes for Producing A Fermentation Product Using A Fermenting Organism” (Novozymes A/S, priority 2014, published 2017).
Numbering of substitutions follows the chain as printed. In names and notes the source's numbering stands.

Tested on: zein
Assay: Relative activity assay of protease variants (zein micro titer plate)
Type: biochemical
Method: Each well contains 200 microL of 0.05-0.1% of zein (Sigma), 0.25 mM ZnSO4 and 1% of agar in 20 mM sodium acetate buffer, pH 4.5.
Yeast clones on SC-glucose were inoculated to a well of a 96-well micro titre plate containing YPD+Zn medium and cultivated at 28° C. for 3 days. The culture supernatants were applied to a 96-well zein micro titer plate and incubated at at least 2 temperatures (ex. 60° C. and 65° C., 70° C. and 75° C., 70° C. and 80° C.) for more than 4 hours or overnight. The turbidity of zein in the plate was measured as A630 and the relative activity (higher/lower temperatures) was determined as an indicator of thermoactivity improvement. The clones with higher relative activity than the parental variant were selected and the sequence was determined.

B1: JTP061: protease variant of SEQ ID NO: 3: T46R/D79L/S87P (protein, listed as Thermoascus aurantiacus)
chain: MRLVASLTALVALSVPVFPAAVNVKRASSYLEITLSQVSNTLIKAVVQNTGSDELSFVHLNFFKDPAPVKKVSVYRDGSEVQFEGILSRYKSTGLSRDAFTYLAPGESVEDVFDIASTYDLTSGGPVTIRTEGVVPYATANSTDIAGYISYSSNVLTIDVDGAAAATVSKAITPLDRRTRISSCSGSRQSALTTALRNAASLANAAADAAQSGSASKFSEYFKRTSSSTRQTVAARLRAVAREASSSSSGATTYYCLDPYGYCSPNVLAYTLPSYNIIANCDIFYTYLPALTSTCHAQDQATTALHEFTHAPGVYSPGTDDLAYGYQAAMGLSSSQAVMNADTYALYANAIYLGC
Table 3
  Relative activity 75° C./70° C.: 111%

B2: JTP063: protease variant of SEQ ID NO: 3: S49R/D79L/S87P (protein, listed as Thermoascus aurantiacus)
chain: B1 chain with R224T, S227R
Table 3
  Relative activity 75° C./70° C.: 94%

B3: JTP064: protease variant of SEQ ID NO: 3: D79L/S87P/N88R (protein, listed as Thermoascus aurantiacus)
chain: B1 chain with R224T, N266R
Table 3
  Relative activity 75° C./70° C.: 92%

B4: JTP068: protease variant of SEQ ID NO: 3: D79L/S87P/T114P (protein, listed as Thermoascus aurantiacus)
chain: B1 chain with R224T, T292P
Table 3
  Relative activity 75° C./70° C.: 99%

B5: JTP069: protease variant of SEQ ID NO: 3: D79L/S87P/S115R (protein, listed as Thermoascus aurantiacus)
chain: B1 chain with R224T, S293R
Table 3
  Relative activity 75° C./70° C.: 103%

B6: JTP071: protease variant of SEQ ID NO: 3: D79L/S87P/T116V (protein, listed as Thermoascus aurantiacus)
chain: B1 chain with R224T, T294V
Table 3
  Relative activity 75° C./70° C.: 105%

B7: JTP072: protease variant of SEQ ID NO: 3: N26R/D79L/S87P (protein, listed as Thermoascus aurantiacus)
chain: B1 chain with N204R, R224T
Table 3
  Relative activity 75° C./65° C.: 92%

B8: JTP078: protease variant of SEQ ID NO: 3: A27V/D79L/S87P/A112P/D142L (protein, listed as Thermoascus aurantiacus)
chain: B1 chain with A205V, R224T, A290P, D320L
Table 3
  Relative activity 75° C./65° C.: 100%

B9: JTP079: protease variant of SEQ ID NO: 3: A27G/D79L/S87P/A112P/D142L (protein, listed as Thermoascus aurantiacus)
chain: B1 chain with A205G, R224T, A290P, D320L
Table 3
  Relative activity 75° C./65° C.: 104%

B10: JTP088: protease variant of SEQ ID NO: 3: Y43F/D79L/S87P/A112P/D142L (protein, listed as Thermoascus aurantiacus)
chain: B1 chain with Y221F, R224T, A290P, D320L
Table 4
  Relative activity 75° C./65° C.: 119%

B11: JTP090: protease variant of SEQ ID NO: 3: D79L/S87P/A112P/T124L/D142L (protein, listed as Thermoascus aurantiacus)
chain: B1 chain with R224T, A290P, T302L, D320L
Table 4
  Relative activity 75° C./65° C.: 141%

B12: JTP083: protease variant of SEQ ID NO: 3: T46R/D79L/S87P/A112P/D142L (protein, listed as Thermoascus aurantiacus)
chain: B1 chain with A290P, D320L
Table 4
  Relative activity 75° C./65° C.: 126%

B13: JTP135: protease variant of SEQ ID NO: 3: S38T D79L S87P A112P A126V D142L (protein, listed as Thermoascus aurantiacus)
chain: B1 chain with S216T, R224T, A290P, A304V, D320L
Table 5, upper part
  Relative activity 80° C./70° C.: 62%

B14: JTP136: protease variant of SEQ ID NO: 3: D79L Y82F S87P A112P A126V D142L (protein, listed as Thermoascus aurantiacus)
chain: B1 chain with R224T, Y260F, A290P, A304V, D320L
Table 5, upper part
  Relative activity 80° C./70° C.: 59%

B15: JTP137: protease variant of SEQ ID NO: 3: A27K D79L S87P A112P A126V D142L (protein, listed as Thermoascus aurantiacus)
chain: B1 chain with A205K, R224T, A290P, A304V, D320L
Table 5, upper part
  Relative activity 80° C./70° C.: 54%

B16: JTP140: protease variant of SEQ ID NO: 3: D79L S87P N98C A112P G135C D142L (protein, listed as Thermoascus aurantiacus)
chain: B1 chain with R224T, N276C, A290P, G313C, D320L
Table 5, upper part
  Relative activity 75° C./70° C.: 81%

B17: JTP141: protease variant of SEQ ID NO: 3: D79L S87P A112P D142L T141C M161C (protein, listed as Thermoascus aurantiacus)
chain: B1 chain with R224T, A290P, T319C, D320L, M339C
Table 5, upper part
  Relative activity 75° C./70° C.: 68%

B18: JTP143: protease variant of SEQ ID NO: 3: S36P D79L S87P A112P D142L (protein, listed as Thermoascus aurantiacus)
chain: B1 chain with S214P, R224T, A290P, D320L
Table 5, upper part
  Relative activity 75° C./70° C.: 69%

B19: JTP144: protease variant of SEQ ID NO: 3: A37P D79L S87P A112P D142L (protein, listed as Thermoascus aurantiacus)
chain: B1 chain with A215P, R224T, A290P, D320L
Table 5, upper part
  Relative activity 75° C./70° C.: 57%

B20: JTP145: protease variant of SEQ ID NO: 3: S49P D79L S87P A112P D142L (protein, listed as Thermoascus aurantiacus)
chain: B1 chain with R224T, S227P, A290P, D320L
Table 5, upper part
  Relative activity 75° C./70° C.: 82%
  Relative activity 80° C./70° C.: 59%

B21: JTP146: protease variant of SEQ ID NO: 3: S50P D79L S87P A112P D142L (protein, listed as Thermoascus aurantiacus)
chain: B1 chain with R224T, S228P, A290P, D320L
Table 5, upper part
  Relative activity 75° C./70° C.: 83%
  Relative activity 80° C./70° C.: 63%

B22: JTP148: protease variant of SEQ ID NO: 3: D79L S87P D104P A112P D142L (protein, listed as Thermoascus aurantiacus)
chain: B1 chain with R224T, D282P, A290P, D320L
Table 5, upper part
  Relative activity 75° C./70° C.: 76%
  Relative activity 80° C./70° C.: 64%

B23: JTP161: protease variant of SEQ ID NO: 3: D79L Y82F S87G A112P D142L (protein, listed as Thermoascus aurantiacus)
chain: B1 chain with R224T, Y260F, P265G, A290P, D320L
Table 5, upper part
  Relative activity 80° C./70° C.: 30%
  Relative activity 85° C./70° C.: 12%

B24: JTP180: protease variant of SEQ ID NO: 3: S70V D79L Y82F S87G Y97W A112P D142L (protein, listed as Thermoascus aurantiacus)
chain: B1 chain with R224T, S248V, Y260F, P265G, Y275W, A290P, D320L
Table 5, upper part
  Relative activity 80° C./70° C.: 52%

B25: JTP181: protease variant of SEQ ID NO: 3: D79L Y82F S87G Y97W D104P A112P D142L (protein, listed as Thermoascus aurantiacus)
chain: B1 chain with R224T, Y260F, P265G, Y275W, D282P, A290P, D320L
Table 5, upper part
  Relative activity 80° C./70° C.: 45%

B26: JTP187: protease variant of SEQ ID NO: 3: S70V D79L Y82F S87G A112P D142L (protein, listed as Thermoascus aurantiacus)
chain: B1 chain with R224T, S248V, Y260F, P265G, A290P, D320L
Table 5, upper part
  Relative activity 80° C./70° C.: 45%

B27: JTP189: protease variant of SEQ ID NO: 3: D79L Y82F S87G A112P A126V D142L (protein, listed as Thermoascus aurantiacus)
chain: B1 chain with R224T, Y260F, P265G, A290P, A304V, D320L
Table 5, upper part
  Relative activity 80° C./70° C.: 46%

B28: JTP193: protease variant of SEQ ID NO: 3: Y82F S87G S70V D79L D104P A112P D142L (protein, listed as Thermoascus aurantiacus)
chain: B1 chain with R224T, S248V, Y260F, P265G, D282P, A290P, D320L
Table 5, upper part
  Relative activity 85° C./70° C.: 15%

B29: JTP194: protease variant of SEQ ID NO: 3: Y82F S87G D79L D104P A112P A126V D142L (protein, listed as Thermoascus aurantiacus)
chain: B1 chain with R224T, Y260F, P265G, D282P, A290P, A304V, D320L
Table 5, upper part
  Relative activity 85° C./70° C.: 22%

B30: JTP210: protease variant of SEQ ID NO: 3: A27K Y82F S87G D104P A112P A126V D142L (protein, listed as Thermoascus aurantiacus)
chain: B1 chain with A205K, R224T, L257D, Y260F, P265G, D282P, A290P, A304V, D320L
Table 5, lower part
  Relative activity 75° C./70° C.: 107%
  Relative activity 80° C./70° C.: 36%

B31: JTP211: protease variant of SEQ ID NO: 3: A27K D79L Y82F D104P A112P A126V D142L (protein, listed as Thermoascus aurantiacus)
chain: B1 chain with A205K, R224T, Y260F, P265S, D282P, A290P, A304V, D320L
Table 5, lower part
  Relative activity 75° C./70° C.: 94%
  Relative activity 80° C./70° C.: 44%

B32: JTP213: protease variant of SEQ ID NO: 3: A27K Y82F D104P A112P A126V D142L (protein, listed as Thermoascus aurantiacus)
chain: B1 chain with A205K, R224T, L257D, Y260F, P265S, D282P, A290P, A304V, D320L
Table 5, lower part
  Relative activity 75° C./70° C.: 103%
  Relative activity 80° C./70° C.: 37%
